From paper PMC8762078 (The Journal of Biological Chemistry, 2021)

B1: LC3C (microtubule-associated protein 1A/1B light chain 3C) (natural protein, human, UniProt Q9BXW4 1-126, looked up)
chain: MPPPQKIPSVRPFKQRKSLAIRQEEVAGIRAKFPNKIPVVVERYPRETFLPPLDKTKFLVPQELTMTQFLSIIRSRMVLRATEAFYLLVNNKSLVSMSATMAEIYRDYKDEDGFVYMTYASQETFG
B2: p62 WT-AIM peptide (peptide)
peptide: SGGDDDWTHLSS
notes: also called p62 AIM; source: synthetic peptide; bought: Genosphere Biotechnologies and Peptide Synthetics

Key:
Settings in all cases: both partners purified
p62 WT-AIM peptide = biological target: B2; assay: native MS; ESI-MS competition binding under nondenaturing conditions: each hATG8 titrated into an equimolar mixture of WT-AIM and L341V-AIM peptides (each 10 μM); read-out is the ratio of peak intensities of unbound WT and L341V peptides; ratios given for 20 μM hATG8; two independent experiments
[1] = biological target: B1; assay: ITC; MicroCal VP-ITC, 30 °C; protein 10 μM in the cell, 10 μl injections of peptide (100-150 μM); 25 mM potassium phosphate, 150 mM NaCl, pH 7.0; no reducing agent; one site binding model; two independent measurements
[2] = biological target: LC3B (microtubule-associated protein 1A/1B light chain 3B) (human, UniProt Q9GZQ8 1-120); assay: as above
GABARAPL1 = GABARAPL1 (human, UniProt Q9H0R8 1-117); assay: as above
GABARAPL2 = biological target: T1, GABARAPL2 (human, UniProt P60520 1-117); assay: as above
T1 construct: GABARAPL2, human ATG8 protein of the GABARAP subfamily; 15N-labelled (13C,15N for assignment) in M9 minimal medium for the NMR experiments; Cloned into pGEX-4T-1 between BamHI and XhoI; thrombin cleavage may leave a few vector residues at the N-terminus (surmised); also called hATG8; source: E. coli BL21 (DE3), purified (Glutathione Sepharose, thrombin cleavage, ion exchange, gel filtration); not …

[3] = biological target: LC3A (microtubule-associated protein 1A/1B light chain 3A) (human, UniProt Q9H492 1-121); assay: as above

T1 sequence (P60520 whole entry): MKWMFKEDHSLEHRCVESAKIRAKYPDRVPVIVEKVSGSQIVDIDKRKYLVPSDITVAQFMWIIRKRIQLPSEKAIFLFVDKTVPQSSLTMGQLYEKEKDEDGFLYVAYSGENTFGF
GABARAPL1, sequence (Q9H0R8 whole entry): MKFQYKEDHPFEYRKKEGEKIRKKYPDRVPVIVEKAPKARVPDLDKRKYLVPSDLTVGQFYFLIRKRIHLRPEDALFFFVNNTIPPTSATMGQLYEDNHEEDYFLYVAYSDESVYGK

For B1, the “ratio of unbound WT:L341V AIM peptides at 20 μM hATG8 (reference: L341V-AIM)” value (p62 WT-AIM peptide) was > 0.95.

With B2 the Kd [1] was 16.8 µM, the dH [1] was -3.59 kcal/mol and the “stoichiometry N” value [1] was 0.82. It also gave a Kd [2] of 3.83 µM, a dH [2] of -10.7 kcal/mol and a Kd (GABARAPL1) of 3.23 µM. The dH (GABARAPL1) was -5.61 kcal/mol, the “stoichiometry N” value (GABARAPL1) was 0.86 and the dH (GABARAPL2) was -2.43 kcal/mol. The “stoichiometry N” value (GABARAPL2) was 1.07, the Kd [3] was 4.55 µM and the dH [3] was -17.9 kcal/mol. For the same binder, the “stoichiometry N” value [3] was 1.05.

B3: p62 L341V-AIM peptide (peptide)
peptide: SGGDDDWTHVSS
notes: also called L341V-mutant peptide; mutant AIM; source: synthetic peptide; bought: Genosphere Biotechnologies and Peptide Synthetics
For B3, the dH [1] was -5.38 kcal/mol, the “stoichiometry N” value [1] was 0.9 and the Kd [2] was 8.47 µM. For the same binder, the Kd (GABARAPL1) was 5.78 µM, the dH (GABARAPL1) was -5.37 kcal/mol and the “stoichiometry N” value (GABARAPL1) was 0.98. For the same binder, the Kd (GABARAPL2) was 6.99 µM, the dH (GABARAPL2) was -4 kcal/mol and the “stoichiometry N” value (GABARAPL2) was 1.03. For the same binder, the dH [3] was -6.3 kcal/mol.
